Experimental data taken from patent publication US7893021B2, “Parathyroid hormone antagonists and uses thereof” (Scantibodies Laboratory, Inc., priority 1999, dated 2011).
Values joined by “and” are separate entries in the source; they are usually repeats but may differ in a detail not shown here. Identical values can stand only once. “Also recorded” adds a separate entry of the source.

B1: hPTH 1-84: Synthetic human PTH 1-84, the whole 84 amino acid parathyroid hormone (SEQ ID NO:1), PTH agonist, purchased from Bachem (peptide)
chain: SVSEIQLMHNLGKHLNSMERVEWLRKKLQDVHNFVALGAPLAPRDAGSQRPRKKEDNVLVESHEKSLGEANKADVNVLTKAKSQ
B2: hPTH 7-84: Synthetic human PTH 7-84 fragment, an exemplary PTH antagonist, obtained from Bachem (peptide)
peptide: LMHNLGKHLNSMERVEWLRKKLQDVHNFVALGAPLAPRDAGSQRPRKKEDNVLVESHEKSLGEANKADVNVLTKAKSQ

Assays:
[1] = system: ROS/17.2 cells; assay: cAMP production in osteoblastic cell line ROS/17.2; assay type: cell-based, rat; settings: for intracellular cAMP: 10^-8 mol/L peptide, five-minute incubation, N=6, before treatment 18.1±1.25
Protocol: Osteoblastic cell line. To compare the biological effects of the two peptides (HPTH 1-84 and 7-84), intracellular cAMP production was measured in the rate osteosarcoma cell line ROS/17.2, which has an osteoblastic phenotype and is known to increase cAMP production in response to PTH. Cells were cultured in Ham's F12 media containing 10% fetal bovine serum. Cells were plated out in 12 well plates at a density of 30,000 cells per well and grown to confluence. Cells were washed three times with KHMS buffer at 37° C. (KCI 4.0 mmol/L, CaCl2 1.25 mmol/L, MgSO4 1.25 mmol/L, KH2PO4 1.2 mmol/L, HEPES 10 mmol/L, NaCl 100 mmol/L, NaHCO3 37 mmol/L, and glucose 10 mmol/L, pH 7.5). cAMP production was measured using 500 μL of KHMS buffer (37°) containing isobutyl-1 methylxantine (1BMX) 1.0 mmol/L and various concentrations (10^−11 to 10^−8 mol/L) of hPTH 1-84 or hPTH 7-84. After a five-minute incubation, 100 μL of 1.8 mol/L pechloric acid were added. After an additional five-minute incubation at room temperature, 100 μL of 3 mol/KHCO3 were added to neutralize the acid. Samples were centrifuged at 3000 rpm for 15 minutes, and the supernatants were assayed for cAMP [26].

[2] = system: Normal female Sprague-Dawley rats; assay: Phosphaturic response (clearance studies: GFR and FEPO4) in rats; assay type: in vivo, rat; settings: for glomerular filtration rate (GFR), hPTH 7-84 given with hPTH 1-84: hPTH 7-84 given five minutes prior to hPTH 1-84, molar ratio 4:1, N=8, control period 2.1±0.1
Protocol: Phosphaturic response. Normal female Sprague-Dawley rats weighing 225 to 250 g were prepared for clearance studies under light anesthesia. Polyethylene catheters (PE50) were placed in the femoeral artery for the collection of blood and measurement of blood pressure (Blood Pressure Analyzer; Micro-Medic, Inc., Louisville, Ky., USA), in the femoral vein for infusion and in the bladder for the collection of urine. Rats were placed in Plexiglass holders and allowed to recover from the effect of the anesthetic for one hour. A priming dose (0.6 mL) of chemical inulin in saline was administered over a period of three minutes to achieve a plasma inulin level between […]. A solution of saline containing inulin to maintain this level and calcium gluconate to deliver 0.5 mg. calcium was infused at the rate of 0.03 mL/min. After equilibration, a total of four 30-minute urine collections was obtained.
To assess the effect of hPTH 1-84 on phosphate excretion, urine was collected during two control periods, after which rats received a priming bolus of 1.8 μg of HPTH 1-84 followed by a sustained infusion that delivered a total of 8.2 μg of I-PTH. After an equilibration period of 20 minutes, two 30-minute urine collections were obtained. In competition experiments, HPTH 7-84 was given five minutes prior to hPTH 1-84 at a molar ratio of 4:1.
Blood samples and blood pressure measurements were recorded at the beginning and end of the baseline period, at the beginning of the PTH infusion period, and at the end of the study. The concentration of inulin in plasma and urine was determined by the method of Führ, Kaczmarczyk, and Kruttgen, Klin Wochenschr, 33:729-730 (1955). The estimation of the glomerular filtration rate (GFR) by inulin clearance and the calculation of the fractional urinary excretion rate of phosphorus (FEP04) were performed in the standard fashion. Blood samples were centrifuged, and plasma phosphorus and calcium concentrations were measured.

[3] = system: rats having hypoparathyroidism (parathyroid glands removed); assay: Serum calcium after i.v. injection in rats with parathyroid glands removed; assay type: in vivo, rat
Source text: The CAP rebound effect is believed to be the body's response to an administration of CIP. This response occurs when the parathyroid gland cells secrete CAP in an effort to return the CAP/CIP ratio to homeostasis with the pre-CIP administration levels. PTH antagonist administration is not accompanied by hypercalcemia and osteosarcoma, as with direct CAP administration. […] All of the rats had their parathyroid glands removed. Five rats received an i.v. injection of a saline control. The serum calcium of the control rats was measured and on average was lowered over time by about 0.18 mg/dl by virtue of a parathyroidectomy. Nine rats received an i.v. injection (10 μg/kg) of hPTH obtained from Bachem, AG of Bubendorf, Switzerland. The serum calcium of the hPTH rats was measured and on average was raised over time by about 0.65 mg/dl. Five rats received an equimolar i.v. injection of a PTH7-84 (an exemplary PTH antagonist) also obtained from Bachem, AG of Bubendorf, Switzerland. The serum calcium of the PTH antagonist rats was measured and on average was lowered over time by about 0.30 mg/dl. Finally, six rats received an i.v. injection comprised of hPTH (10 μg/kg) and an equimolar amount of PTH antagonist PTH7-84. The serum calcium of the hPTH/PTH antagonist rats was measured and on average remained substantially the same over time, raising only about 0.03 mg/dl.

[4] = system: parathyroidectomized (PTX) rats; assay: Calcemic response in parathyroidectomized (PTX) rats fed a 0.02% calcium diet; assay type: in vivo, rat; settings: hPTH 7-84 given 10 minutes prior to each hPTH 1-84 injection, 1:1 molar ratio, N=6
Protocol: Calcemic response. Normal female Sprague-Dawley rats weighing 225 to 250 g (Harlan, Indianapolis, Ind., USA) were parathyroidectomized (PTX) and fed a 0.02% calcium diet. Rats with a plasma calcium below 7.0 mg/dL after overnight fasting were included in the study. A 20 μg dose of hPTH 1-84 or 7-84 was given intraperitoneally to PTX rats in four doses of 5 μg each at 30-minute intervals (0, 30, 60, and 90 minutes). For control studies, the rats received vehicle (saline solution) alone. Blood was drawn via the tail at 0, 60, 90, and 120 minutes. For competition experiments, rats received an injection of hPTH 7-84 10 minutes prior to each injection of hPTH 1-84. The molar ratio of hPTH 7-84:hPTH 1-84 was 1:1.
Total plasma calcium levels were determined using an atomic absorption spectrophotometer (model 110B; Perkin Elmer, Norwalk, Conn., USA). Plasma phosphorus levels were determined using an autoanalyzer (COBAS MIRA Plus; Roche, Newark, N.J., USA).

Row | Molecule | intracellular cAMP [1] | cAMP production, dose dependence ([1]; 10^-11 to 10^-8 mol/L peptide) | glomerular filtration rate (GFR) ([2]; rats infused with hPTH 1-84 alone, N=10, control period 1.8±0.3) | fractional excretion of phosphate (FEP04) ([2]; rats infused with hPTH 1-84 alone, N=10, control period 11.9±2.4) | serum calcium raised over time (average) ([3]; i.v. injection 10 μg/kg hPTH alone, nine rats, saline control lowered about 0.18) | decrease of the increase in FEP04 (phosphaturia) induced by hPTH 1-84 ([2]; hPTH 7-84 coadministered with hPTH 1-84, molar ratio 4:1) | glomerular filtration rate (GFR), hPTH 7-84 given with hPTH 1-84 [2] | glomerular filtration rate (GFR), hPTH 7-84 given with hPTH 1-84 ([2]; listed as 7-84 PTH) | serum calcium lowered over time (average) ([3]; i.v. injection of PTH7-84 alone, equimolar to 10 μg/kg hPTH, five rats, saline control lowered about 0.18) | serum calcium raised over time (average), co-injection with hPTH ([3]; i.v. injection of hPTH (10 μg/kg) and an equimolar amount of PTH7-84, six rats) | antagonist property compared with PTH3-34 ([3]; prevention of the hPTH-induced serum calcium increase in rats) | decrease of the calcemic response induced by hPTH 1-84 [4]
1 | B1 | 738±4.13 nmol/well and 738±4.1 nmol/well | increased cAMP production in a does-dependent manner; also recorded: increased cAMP production in a dose-dependent manner | 1.8 ± 0.1 mL/min | 27.7±2.4% | about 0.65 mg/dl |  |  |  |  |  |  | 
2 | B2 | no effect |  |  |  |  | 50.2% | 2.6 ± 0.2 mL/min | significant increase | about 0.30 mg/dl | about 0.03 mg/dl | much more potent in its antagonist property than the previously reported antagonist PTH3-34 | 94%
